Data taken from the Human Domainome abundance scans (Beltran et al. 2025).
± gives the uncertainty stated by the source.

B1: Ankyrin-2, residues 3571 to 3650; numbered along this chain, Q01484 (parent)
chain: ERLAYIADHLGFSWTELARELDFTEEQIHQIRIENPNSLQDQSHALLKYWLERDGKHATDTNLVECLTKINRMDIVHLME

Variants of: B1
Assay: abundance fitness (aPCA) (normalised: wild type 0, dead -1); higher = more abundant; growth selection in yeast, the domain comes from the species named
Details: Homo sapiens

Variant	abundance fitness
ERLAYIADHLGFSWTELARELDFTEEQIHQIRIENPNSLQDQSHALLKYWLERDGKHATDTNLVECLTKINRMFIVHLME	-0.971 ± 0.28
ERLAYIADHLGFSWTELARELDFTEEQIHQIRIENPNSLQDQSHALLKYWLERDGKHATDTNLVECLTKINRMEIVHLME	-0.151 ± 0.11
ERLAYIADHLGFSWTELARELDFTEEQIHQIRIENPNSLQDQSHALLKYWLERDGKHATDTNLVECLTKINRMAIVHLME	-0.515 ± 0.059
ERLAYIADHLGFSWTELARELDFTEEQIHQIRIENPNSLQDQSHALLKYWLERDGKHATDTNLVECLTKINRMHIVHLME	-0.563 ± 0.15
ERLAYIADHLGFSWTELARELDFTEEQIHQIRIENPNSLQDQSHALLKYWLERDGKHATDTNLVECLTKINRMGIVHLME	-0.678 ± 0.094
ERLAYIADHLGFSWTELARELDFTEEQIHQIRIENPNSLQDQSHALLKYWLERDGKHATDTNLVECLTYINRMDIVHLME	-0.017 ± 0.15
ERLAYIADHLGFSWTELARELDFTEEQIHQIRIENPNSLQDQSHALLKYWLERDGKHATDTNLVECLTEINRMDIVHLME	-0.054 ± 0.047
ERLAYIADHLGFSWTELARELDFTEEQIHQIRIENPNSLQDQSHALLKYWLERDGKHATDTNLVECLTTINRMDIVHLME	-0.032 ± 0.062
ERLAYIADHLGFSWTELARELDFTEEQIHQIRIENPNSLQDQSHALLKYWLERDGKHATDTNLVECLTIINRMDIVHLME	-0.121 ± 0.15
ERLAYIADHLGFSWTELARELDFTEEQIHQIRIENPNSLQDQSHALLKYWLERDGKHATDTNLVECLTLINRMDIVHLME	-0.059 ± 0.042
ERLAYIADHLGFSWTELARELDFTEEQIHQIRIENPNSLQDQSHALLKYWLERDGKHATDTNLVECLTRINRMDIVHLME	0.005 ± 0.039
ERLAYIADHLGFSWTELARELDFTEEQIHQIRIENPNSLQDQSHALLKYWLERDGKHATDTNLVECLTQINRMDIVHLME	0 ± 0.066
ERLAYIADHLGFSWTELARELDFTEEQIHQIRIENPNSLQDQSHALLKYWLERDGKHATDTNLVECLTPINRMDIVHLME	-0.545 ± 0.038
ERLAYIADHLGFSWTELARELDFTEEQIHQIRIENPNSLQDQSHALLKYWLERDGKHATDTNLVECLTFINRMDIVHLME	-0.126 ± 0.1
ERLAYIADHLGFSWTELARELDFTEEQIHQIRIENPNSLQDQSHALLKYWLERDGKHATDTNLVECLTSINRMDIVHLME	-0.049 ± 0.059
ERLAYIADHLGFSWTELARELDFTEEQIHQIRIENPNSLQDQSHALLKYWLERDGKHATDTNLVECLTGINRMDIVHLME	-0.06 ± 0.041
ERLAYIADHLGFSWTELARELDFTEEQIHQIRIENPNSLQDQSHALLKYWLERDGKHATDTNLVECLTVINRMDIVHLME	-0.027 ± 0.044

Variant	abundance fitness
ERLAYIADHLGFSWTELARELDFTEEQIHQIRIENPNSLQDQSHALLKYWLERDGKHATDTNLVECLTWINRMDIVHLME	-0.306 ± 0.05
ERLAYIADHLGFSWTELARELDFTEEQIHQIRIENPNSLQDQSHALLKYWLERDGKHATDTNLVECLTNINRMDIVHLME	0.012 ± 0.12
ERLAYIADHLGFSWTELARELDFTEEQIHQIRIENPNSLQDQSHALLKYWLERDGKHATDTNLVECLTMINRMDIVHLME	-0.068 ± 0.069
ERLAYIADHLGFSWTELARELDFTEEQIHQIRIENPNSLQDQSHALLKYWLERDGKHATDTNLVECLTKINRCDIVHLME	0.226 ± 0.48
ERLAYIADHLGFSWTELARELDFTEEQIHQIRIENPNSLQDQSHALLKYWLERDGKHATDTNLVECLTKINRPDIVHLME	-0.134 ± 0.45
ERLAYIADHLGFSWTELARELDFTEEQIHQIRIENPNSLQDQSHALLKYWLERDGKHATDTNLVECLTKINRLDIVHLME	0.04 ± 0.41
ERLAYIADHLGFSWTELARELDFTEEQIHQIRIENPNSLQDQSHALLKYWLERDGKHATDTNLVECLTKINRRDIVHLME	0.018 ± 0.35
ERLAYIADHLGFSWTELARELDFTEEQIHQIRIENPNSLQDQSHALLKYWLERDGKHATDTNLVECLTKINRTDIVHLME	-0.092 ± 0.16
ERLAYIADHLGFSWTELARELDFTEEQIHQIRIENPNSLQDQSHALLKYWLERDGKHATDTNLVECLTKINRVDIVHLME	0.035 ± 0.15
ERLAYIADHLGFSWTELARELDFTEEQIHQIRIENPNSLQDQSHALLKYWLERDGKHATDTNLVECLTKINRGDIVHLME	-0.165 ± 0.31
ERLAYIADHLGFSWTELARELDFTEEQIHQIRIENPNSLQDQSHALLKYWLERDGKHATDTNLVECLTKWNRMDIVHLME	-0.789 ± 0.21
ERLAYIADHLGFSWTELARELDFTEEQIHQIRIENPNSLQDQSHALLKYWLERDGKHATDTNLVECLTKENRMDIVHLME	-0.305 ± 0.12
ERLAYIADHLGFSWTELARELDFTEEQIHQIRIENPNSLQDQSHALLKYWLERDGKHATDTNLVECLTKHNRMDIVHLME	-0.334 ± 0.17
ERLAYIADHLGFSWTELARELDFTEEQIHQIRIENPNSLQDQSHALLKYWLERDGKHATDTNLVECLTKGNRMDIVHLME	-0.663 ± 0.068
ERLAYIADHLGFSWTELARELDFTEEQIHQIRIENPNSLQDQSHALLKYWLERDGKHATDTNLVECLTKTNRMDIVHLME	-0.226 ± 0.12
ERLAYIADHLGFSWTELARELDFTEEQIHQIRIENPNSLQDQSHALLKYWLERDGKHATDTNLVECLTKPNRMDIVHLME	-1.06 ± 0.13
ERLAYIADHLGFSWTELARELDFTEEQIHQIRIENPNSLQDQSHALLKYWLERDGKHATDTNLVECLTKNNRMDIVHLME	-0.693 ± 0.26
